Sequences and labels used below:
B1: OP (opossum ADE-like) (structured_RNA)
RNA: GGCCAGGACGCAGUAUUACUCUCGGGUC
B2: dapical (structured_RNA)
RNA: GCCUGCCAGUACCCUCCAUAAAGUUCUAUUUACUGGGCUGGCUCUGGGC
B3: dstem1 (structured_RNA)
RNA: GCCUGUAAGUACCCUCCACACCGUUCUAGGUGCUGGGCUUACUCUGGGC
B4: MM (murine Ox40 ADE wt) (structured_RNA)
RNA: B3 RNA with U6C, A7C, U40G, A41G
B5: dstem2 (structured_RNA)
RNA: B3 RNA with C17U, G35A
B6: DK (dolphin/killer whale Ox40 ADE) (structured_RNA)
RNA: GCCCUGUGCCGUUUUAGGCGCUCCUGGGC
B7: HS 3'bulge (structured_RNA)
RNA: GGCCAUCUGCACCGUUCUAGGUGCCGAACUGGCU
B8: LI (lizard putative ADE) (structured_RNA)
RNA: GGUGUGUUUAUUUCAGGAGACA
B9: delta-bulge (structured_RNA)
RNA: GCCUGCCAGUCCACACCGUUCUAGGUGCUGGGCUGGCUCUGGGC
B10: CH (chicken putative ADE) (structured_RNA)
RNA: GCCGAGCCUGAGUUUAUACAGUCCUUUGUGC
B11: MM 3'bulge (structured_RNA)
RNA: GCCUGCCAGUCCACACCGUUCUAGGUGCUGGACCCUGCUGGCUCUGGGC
B12: HS low pur. (structured_RNA)
RNA: GGCGAACAGUGCAGCGUUCUAGCUGCCCUUCGCU
B13: HS (human Ox40 ADE wt) (structured_RNA)
RNA: GGCCAACUCUGCACCGUUCUAGGUGCCGAUGGCU
B14: HE (hedgehog Ox40 ADE) (structured_RNA)
RNA: GCACCCUCCCACACCGUUUUAGGUGUUCUGGGUG
B15: EL (elephant Ox40 ADE) (structured_RNA)
RNA: GUCCCCUCUGCGCCGUUUUAGGCGUUUCUGGGCUGGC

Positions count from the first letter of the chain named.

The target of the first series is T1, coreROQ (Roquin, murine/human) (Mus musculus, UniProt Q4VGL6 171-326).
T1 sequence: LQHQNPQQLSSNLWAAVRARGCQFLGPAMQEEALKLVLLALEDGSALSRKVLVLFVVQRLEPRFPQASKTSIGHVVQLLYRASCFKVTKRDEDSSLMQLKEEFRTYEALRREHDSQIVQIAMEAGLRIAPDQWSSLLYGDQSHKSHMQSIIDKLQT
As to the kind of experiment: EMSA. (In general: A gel shift assay detects complexes by their altered migration in electrophoresis.)
With B1, the binding result is “no binding”.
B2: the binding result is given as “no binding”.

For the next series, the target named is T2, extROQ (Roquin, murine/human) (Mus musculus, UniProt Q4VGL6 89-404).
T2 sequence: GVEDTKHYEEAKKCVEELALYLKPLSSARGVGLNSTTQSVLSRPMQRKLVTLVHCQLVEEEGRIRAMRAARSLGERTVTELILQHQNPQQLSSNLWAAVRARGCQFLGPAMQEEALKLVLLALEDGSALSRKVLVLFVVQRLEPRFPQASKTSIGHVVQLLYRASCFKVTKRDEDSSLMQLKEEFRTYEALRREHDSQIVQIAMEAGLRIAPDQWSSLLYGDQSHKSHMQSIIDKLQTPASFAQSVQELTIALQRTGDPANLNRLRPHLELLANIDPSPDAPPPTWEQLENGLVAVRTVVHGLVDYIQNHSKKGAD
As to the kind of experiment: EMSA.
The Kd is the equilibrium constant for the complex coming apart. Higher therefore signals weaker binding. As to B3, binding was characterised by a dissociation constant (Kd) of 1040 ± 139 nM.
In turn, B4 displayed a Kd of 323 ± 139 nM.
For B5, binding was characterised by a dissociation constant (Kd) of 978 ± 76.9 nM.
The molecule B6 had a Kd of 847 ± 77.4 nM.
With B7, the Kd was found to be 475 ± 62.6 nM.
Turning to B8, the Kd was 1840 ± 403 nM. This Kd is about 3.9-fold higher than that of the molecule before.
In turn, B9 came in with a Kd of 479 ± 188 nM.
Take B10: binding was characterised by a dissociation constant (Kd) of 4460 ± 717 nM. Compared with the last molecule, the Kd is about 9.3-fold higher.
Molecule B11 gave a Kd of 525 ± 60.1 nM.
Take B12: the Kd is 673 ± 65.2 nM.
The molecule B13 yielded a Kd of 386 ± 63.7 nM.
Still for that read-out and setting: then B14, with 642 ± 119 nM; and B15, with 778 ± 157 nM; and B2, with 488 ± 373 nM.

The next series deals with T1, coreROQ (Roquin, murine/human). In words: EMSA. The source holds these as a separate data set.
B3 had a Kd of 381 ± 94.8 nM.
B4 registered a Kd of 308 ± 57.2 nM.
Molecule B5 registered a Kd of 451 ± 46.9 nM.
The same measure, in the same setting: the value for B6 was 480 ± 24.7 nM.
Molecule B7 yielded a Kd of 293 ± 149 nM.
B9 showed a dissociation constant (Kd) of 299 ± 41.6 nM.
Take B11: binding was put at a Kd of 241 ± 15.6 nM.
In turn, B12 gave a Kd of 432 ± 62.6 nM.
As to B13, binding was characterised by a dissociation constant (Kd) of 295 ± 29.6 nM.
Still for that read-out and setting: the value for B14 was 318 ± 17.2 nM; that for B15 was 534 ± 366 nM.

The values are drawn from PMC11730611.
